What all share (experiment): SPOT array
The target in assay [1] is T1, Boi1 SH3 (BOI1_YEAST), P38041.
T1 chain: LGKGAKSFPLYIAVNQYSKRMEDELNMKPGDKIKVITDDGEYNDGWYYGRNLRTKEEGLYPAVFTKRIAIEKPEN

Assay [2] has as its target T2, Boi2 SH3 (BOI2_YEAST), P39969.
T2 chain: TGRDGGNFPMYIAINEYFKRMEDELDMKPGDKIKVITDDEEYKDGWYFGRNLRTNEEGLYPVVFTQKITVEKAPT

Assay [3] concerns the target T3, Rvs167 SH3 (RV167_YEAST), P39743.
T3 chain: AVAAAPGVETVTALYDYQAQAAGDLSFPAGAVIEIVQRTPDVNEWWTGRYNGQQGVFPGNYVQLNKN

Assay [4] has as its target T4, Yfr024 SH3 (LSB3_YEAST), P43603.
T4 chain: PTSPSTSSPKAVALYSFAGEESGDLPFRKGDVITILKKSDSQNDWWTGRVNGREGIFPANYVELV

Assay [5] concerns the target T5, Yhr016c SH3 (YSC84_YEAST), P32793.
T5 chain: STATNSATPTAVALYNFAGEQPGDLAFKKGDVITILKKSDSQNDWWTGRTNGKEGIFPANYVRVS

B1: YGR204W 307-320 (peptide)
chain: LQIPPLPLKLLTPV
Turning to B1, the normalised SPOT signal, Boehringer light units (BLU); mean over the file's lines of this peptide in assay [1] was 113; in assay [2], 49.8; in assay [3], 78.2; in assay [4] it was 1670; in assay [5], 195.

B2: YFL036W 1327-1340 (peptide)
chain: LRLPEIPPKGDFDV
For the molecule B2, the normalised SPOT signal, Boehringer light units (BLU); mean over the file's lines of this peptide in assay [1] was found to be 1.5; in assay [2], 78.1; in assay [3] it was 28.8; in assay [4], 322; in assay [5] it was 124.

B3: YGL195W 2564-2577 (peptide)
chain: LRDPVIPIKLAAEK
As for B3, the normalised SPOT signal, Boehringer light units (BLU); mean over the file's lines of this peptide was determined as 200 in assay [1]; 28.8 in assay [2]; 2.2 in assay [3]; 68.1 in assay [4]; 0 in assay [5].

B4: YER141W 449-462 (peptide)
chain: LRKPRAPMRNVIIT
Consider B4, for which the normalised SPOT signal, Boehringer light units (BLU); mean over the file's lines of this peptide in assay [1] worked out at 197; in assay [2], 90.5; in assay [3], 229; in assay [4], 3330; in assay [5], 257.

B5: YOR124C 391-404 (peptide)
chain: LLAPNSPLKNTKSV
As for B5, the normalised SPOT signal, Boehringer light units (BLU); mean over the file's lines of this peptide was determined as 57.9 in assay [1]; 10.2 in assay [2]; 26.4 in assay [3]; 94.9 in assay [4]; 53.5 in assay [5].

B6: YGR233C 693-706 (peptide)
chain: LPPPIIPLRKYGHN
With B6, the normalised SPOT signal, Boehringer light units (BLU); mean over the file's lines of this peptide was found to be 20400 in assay [1]; 353 in assay [2]; 1930 in assay [3]; 15900 in assay [4]; 18400 in assay [5].

B7: YPL115C 570-583 (peptide)
chain: LPLPTLPDRQLFQT
For B7, the normalised SPOT signal, Boehringer light units (BLU); mean over the file's lines of this peptide in assay [1] was 125; in assay [2], 48.9; in assay [3] it was 3860; in assay [4], 15100; in assay [5], 6800.

B8: YLR253W 491-504 (peptide)
chain: LQNPLGPERTFLIM
With B8, the normalised SPOT signal, Boehringer light units (BLU); mean over the file's lines of this peptide is 121 in assay [1]; 32.9 in assay [2]; 27.6 in assay [3]; 197 in assay [4]; 49 in assay [5].

B9: YOR181W 341-354 (peptide)
chain: LPAPPPPPRRGPAP
For B9, the normalised SPOT signal, Boehringer light units (BLU); mean over the file's lines of this peptide was determined as 2960 in assay [1]; 55.6 in assay [2]; 5620 in assay [3]; 6280 in assay [4]; 1260 in assay [5].

B10: YBR275C 1790-1803 (peptide)
chain: LMPPDSPPRMTENT
Take B10: the normalised SPOT signal, Boehringer light units (BLU); mean over the file's lines of this peptide came out at 47.3 in assay [1]; 162 in assay [2]; 1.2 in assay [3]; 1520 in assay [4]; 485 in assay [5].

B11: YMR086W 52-65 (peptide)
chain: LRKPSAPKRMSSIS
As to B11, the normalised SPOT signal, Boehringer light units (BLU); mean over the file's lines of this peptide in assay [1] was 119; in assay [2], 77.6; in assay [3] it was 276; in assay [4] it was 2940; in assay [5], 270.

B12: YBR279W 17-30 (peptide)
chain: LPVPQLPPKLLVYP
In the case of B12, the normalised SPOT signal, Boehringer light units (BLU); mean over the file's lines of this peptide in assay [1] was found to be 375; in assay [2], 57.9; in assay [3], 64.4; in assay [4], 4360; in assay [5], 196.

B13: YER158C 363-376 (peptide)
chain: LPPPRSPNRPTLSD
In the case of B13, the normalised SPOT signal, Boehringer light units (BLU); mean over the file's lines of this peptide was 53500 in assay [1]; 48500 in assay [2]; 15000 in assay [3]; 33900 in assay [4]; 12200 in assay [5].

B14: YHR148W 63-76 (peptide)
chain: LLPPTDPFRRKHEQ
On to B14, for which the normalised SPOT signal, Boehringer light units (BLU); mean over the file's lines of this peptide in assay [1] is 56.5; in assay [2], 15; in assay [3] it was 49.4; in assay [4], 314; in assay [5], 224.

B15: YGR154C 67-80 (peptide)
chain: LPAPHRPEKYKERF
In the case of B15, the normalised SPOT signal, Boehringer light units (BLU); mean over the file's lines of this peptide in assay [1] is 89.9; in assay [2] it was 35.8; in assay [3] it was 28.8; in assay [4] it was 1230; in assay [5], 171.

B16: YGL216W 249-262 (peptide)
chain: LLKPETPSKRLVIR
B16: the normalised SPOT signal, Boehringer light units (BLU); mean over the file's lines of this peptide in assay [1] is 229; in assay [2], 13.3; in assay [3] it was 25.7; in assay [4], 1480; in assay [5], 59.7.

B17: YJL187C 191-204 (peptide)
chain: LRIPETPVKKSPLV
As for B17, the normalised SPOT signal, Boehringer light units (BLU); mean over the file's lines of this peptide in assay [1] worked out at 66.9; in assay [2], 42; in assay [3] it was 1.6; in assay [4] it was 164; in assay [5] it was 37.4.

B18: YDL225W 445-458 (peptide)
chain: LNSPDLPERTKLRN
Take B18: the normalised SPOT signal, Boehringer light units (BLU); mean over the file's lines of this peptide was 6110 in assay [1]; 31.1 in assay [2]; 23300 in assay [3]; 35600 in assay [4]; 59600 in assay [5].

B19: YDL140C 239-252 (peptide)
chain: LPVPPPPVRPSISF
B19: the normalised SPOT signal, Boehringer light units (BLU); mean over the file's lines of this peptide in assay [1] is 37.7; in assay [2], 51.2; in assay [3], 769; in assay [4], 11400; in assay [5], 3380.

Source of the values: PMC314469, “Protein Interaction Networks by Proteome Peptide Scanning” (PLoS Biology, 2004).
